Sequences and labels used below:
B2: FliP (natural protein)
chain: QLPGLISQPLAGGGQSWSLSVQTLVFITSLTFLPAILLMMTSFTRIIIVFGLLRNALGTPSAPPNQVLLGLALFLTFFIMSPVIDKIYVDAYQPFSEQKISMQEALDKGAQPLRAFMLRQTREADLALFARLANSGPLQGPEAVPMRILLPAYVTSELKTAFQIGFTIFIPFLIIDLVIASVLMALGMMMVPPATIALPFKLMLFVLVDGWQLLMGSLAQSFYS
notes: FliP of Salmonella enterica serovar Typhimurium, mature protein after cleavage of the signal peptide (residues 1-21; cleavage between Ala-21 and Gln-22); residue numbers count on the precursor; Five FliP subunits stand in the FliP5-FliQ4-FliR1 complex; also called mature FliP; FliP^A (Mol-A); source: Salmonella SJW1368 carrying pMKM10001 (pTrcCES3/ FliP + FliQ + FliR-His); purified as FliPQR-His …

Test in all cases: cryo-EM structure; FliPQR-His complex purified from Salmonella membranes and reconstituted in a peptidisc, detergent-free (20 mM Tris-HCl pH 8.0, 150 mM NaCl), fluorinated Fos-Choline 0, 1.0 or 2.0 mM added before grid preparation; single-particle analysis, C1 symmetry, 3.0 Å; closed form
The data set “FliP” has as its target B2. The following applies: both partners purified.
A further data set concerns the target T1, FliR-His (Salmonella enterica serovar Typhimurium, UniProt P54702 1-264).
T1 construct: FliR of Salmonella enterica serovar Typhimurium; One FliR subunit stands in the FliP5-FliQ4-FliR1 complex; source: Salmonella SJW1368 carrying pMKM10001 (pTrcCES3/ FliP + FliQ + FliR-His); purified as FliPQR-His complex (LMNG, Ni-NTA, SEC), reconstituted in peptidisc; not shown: His tag (10 residues), C-terminal, kept
T1 sequence: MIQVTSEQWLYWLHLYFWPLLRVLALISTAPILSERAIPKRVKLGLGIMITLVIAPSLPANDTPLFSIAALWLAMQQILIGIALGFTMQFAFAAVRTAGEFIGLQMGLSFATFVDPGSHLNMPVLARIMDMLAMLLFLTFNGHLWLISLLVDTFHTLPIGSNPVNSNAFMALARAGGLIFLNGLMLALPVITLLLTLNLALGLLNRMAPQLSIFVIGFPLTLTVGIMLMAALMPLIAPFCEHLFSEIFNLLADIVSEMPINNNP
The following applies: both partners purified.

Data set [1] concerns the molecule itself.

B1: FliQ (natural protein)
chain: MTPESVMMMGTEAMKVALALAAPLLLVALITGLIISILQAATQINEMTLSFIPKIVAVFIAIIVAGPWMLNLLLDYVRTLFSNLPYIIG
notes: FliQ of Salmonella enterica serovar Typhimurium; Four FliQ subunits stand in the FliP5-FliQ4-FliR1 complex; source: Salmonella SJW1368 carrying pMKM10001 (pTrcCES3/ FliP + FliQ + FliR-His); purified as FliPQR-His complex (LMNG, Ni-NTA, SEC), reconstituted in peptidisc
As to B1, the binding result with FliP and in the data set with FliR-His was “binds” throughout.
As for B2, the binding result in the data set with FliR-His is “binds”. Also, in data set [1], the stoichiometry N (commonly a count of units in the complex or per binding partner) was 5 subunits.
